In patent US20250218531A1 (ABSCI, published 2025):
Residue numbers refer to the chain shown, from its start. Where two headings read alike, the source gives them in different places.

What was measured:
[1] = molecular target: T1, human epidermal growth factor receptor 2 (HER2) extracellular domain (human, UniProt P04626 23-629); test: SPR, table row 2
[2] = molecular target: T1, human epidermal growth factor receptor …; test: SPR (Carterra LSA), Fab captured, HER2 ECD as analyte
[3] = molecular target: T1, human epidermal growth factor receptor …; test: SPR, table row 3
[4] = molecular target: T1, human epidermal growth factor receptor …
[5] = molecular target: human epidermal growth factor receptor 2 (HER2) extracellular domain (human, UniProt P04626 23-629); test: SPR, Fab format
[6] = molecular target: T1, human epidermal growth factor receptor …; test: SPR

B1: Trast_Her2_12 (Fab, V domains shown)
VH: EVQLVESGGGLVQPGGSLRLSCAASGFNIKDTYIHWVRQAPGKGLEWVARIYPTNGYTRYADSVKGRFTISADTSKNTAYLQMNSLRAEDTAVYYCAGHWTYRFADTLWGQGTLVTVSS
VL: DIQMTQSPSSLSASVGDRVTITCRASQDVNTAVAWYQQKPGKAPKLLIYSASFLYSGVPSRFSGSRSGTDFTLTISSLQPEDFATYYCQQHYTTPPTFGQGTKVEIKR
notes: also called HCDR3 AGHWTYRFADTL
- Kd [1]: ≤ 0.792 nM
- koff [1]: ≤ 1e-05 s⁻¹
- kon [1]: 12600 M⁻¹ s⁻¹

B2: De novo trastuzumab HCDR3 variant ARYYYGFYYFDY (Fab, V domains shown)
VH: EVQLVESGGGLVQPGGSLRLSCAASGFNIKDTYIHWVRQAPGKGLEWVARIYPTNGYTRYADSVKGRFTISADTSKNTAYLQMNSLRAEDTAVYYCARYYYGFYYFDYWGQGTLVTVSS
VL: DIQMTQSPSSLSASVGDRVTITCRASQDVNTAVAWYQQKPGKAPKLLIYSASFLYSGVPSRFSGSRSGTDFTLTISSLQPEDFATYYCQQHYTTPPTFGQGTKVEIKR
notes: Fab format
- log10(KD) [2]: -8.92 log10(M)

B3: Trast_Her2_52 (Fab, V domains shown)
VH: B2 VH with R98K, Y99I, Y100S, Y101R, G102Y, F103Y, Y105G, F106M
VL: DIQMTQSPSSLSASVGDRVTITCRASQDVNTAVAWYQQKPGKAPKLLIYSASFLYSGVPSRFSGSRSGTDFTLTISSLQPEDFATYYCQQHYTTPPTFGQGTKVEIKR
notes: also called HCDR3 AKISRYYYGMDY
- Kd [3]: 0.929 nM
- koff [3]: 1e-05 s⁻¹
- kon [3]: 10800 M⁻¹ s⁻¹
- Kd [4]: 9.01 nM
- koff [4]: 0.000127 s⁻¹
- kon [4]: 14100 M⁻¹ s⁻¹

B4: De novo trastuzumab HCDR3 variant ARYLSDSYAWDY (SEQ ID NO: 490) (Fab, V domains shown)
VH: B2 VH with Y100L, Y101S, G102D, F103S, Y105A, F106W
VL: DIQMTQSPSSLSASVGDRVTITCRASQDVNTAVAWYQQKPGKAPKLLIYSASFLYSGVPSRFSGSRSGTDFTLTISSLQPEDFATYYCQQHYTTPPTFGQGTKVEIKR
- Kd [5]: 434 nM
- log(KD (M)) [5]: -6.36 log M

B5: De novo trastuzumab HCDR3 variant ANDIYIQGYDLNR (Fab, V domains shown)
VH: EVQLVESGGGLVQPGGSLRLSCAASGFNIKDTYIHWVRQAPGKGLEWVARIYPTNGYTRYADSVKGRFTISADTSKNTAYLQMNSLRAEDTAVYYCANDIYIQGYDLNRWGQGTLVTVSS
VL: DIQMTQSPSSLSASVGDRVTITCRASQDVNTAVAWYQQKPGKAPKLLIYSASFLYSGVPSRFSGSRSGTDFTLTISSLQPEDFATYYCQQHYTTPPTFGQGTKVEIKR
notes: Fab format
- log10(KD) [2]: -8.4 log10(M)

B6: AI Design 7 (multi-step AI designed trastuzumab variant, native HCDR1) (Fab, V domains shown)
VH: EVQLVESGGGLVQPGGSLRLSCAASGFNIKDTYIHWVRQAPGKGLEWVARIDPANGYTRYADSVKGRFTISADTSKNTAYLQMNSLRAEDTAVYYCARVGGRGYYYYDYWGQGTLVTVSS
VL: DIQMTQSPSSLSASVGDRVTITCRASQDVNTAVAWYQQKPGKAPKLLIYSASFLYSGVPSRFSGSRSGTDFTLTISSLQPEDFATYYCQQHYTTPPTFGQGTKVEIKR
notes: Fab format; also called GFNIKDTY / IDPANGYT / ARVGGRGYYYYDY
- Kd [6]: 134 nM

B7: AI Design 9 (multi-step AI designed trastuzumab variant, native HCDR1 and HCDR2) (Fab, V domains shown)
VH: B6 VH with D52Y, A54T, V99Y, G100Y, R102S, G103S, Y104S, Y107F, D108A
VL: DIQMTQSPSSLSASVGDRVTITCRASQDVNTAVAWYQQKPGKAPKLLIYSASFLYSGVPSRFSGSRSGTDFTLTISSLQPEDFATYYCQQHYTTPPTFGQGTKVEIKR
notes: Fab format; also called GFNIKDTY / IYPTNGYT / ARYYGSSSYYFAY
- Kd [6]: 60.6 nM

B8: AI Design 2 (multi-step AI designed trastuzumab HCDR1/2/3 variant) (Fab, V domains shown)
VH: EVQLVESGGGLVQPGGSLRLSCAASGFNISDYYIHWVRQAPGKGLEWVARIYPSSGYTRYADSVKGRFTISADTSKNTAYLQMNSLRAEDTAVYYCARDGGVGSYSMDVWGQGTLVTVSS
VL: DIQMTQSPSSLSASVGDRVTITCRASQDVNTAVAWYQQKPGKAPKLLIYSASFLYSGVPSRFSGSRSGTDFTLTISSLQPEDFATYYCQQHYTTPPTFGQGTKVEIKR
notes: Fab format; also called GFNISDYY / IYPSSGYT / ARDGGVGSYSMDV
- Kd [6]: 1320 nM

B9: AI Design 6 (multi-step AI designed trastuzumab variant, native HCDR1) (Fab, V domains shown)
VH: B6 VH with N55D, V99E, R102Y, Y106A, Y107M
VL: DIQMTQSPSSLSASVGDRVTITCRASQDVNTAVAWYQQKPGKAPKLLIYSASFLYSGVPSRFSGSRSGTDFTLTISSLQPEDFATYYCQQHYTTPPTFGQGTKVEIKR
notes: Fab format; also called GFNIKDTY / IDPADGYT / AREGGYGYYAMDY
- Kd [6]: 160 nM

B10: De novo trastuzumab HCDR3 variant TRYFFNGWYYFDV (Fab, V domains shown)
VH: B6 VH with D52Y, A54T, A97T, V99Y, G100F, G101F, R102N, Y104W, Y107F, Y109V
VL: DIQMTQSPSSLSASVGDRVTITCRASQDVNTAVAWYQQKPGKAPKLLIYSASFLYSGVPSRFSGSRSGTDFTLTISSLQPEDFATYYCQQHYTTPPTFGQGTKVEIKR
notes: Fab format
- log10(KD) [2]: -9.03 log10(M)

B11: AI Design 4 (multi-step AI designed trastuzumab HCDR1/2/3 variant) (Fab, V domains shown)
VH: B6 VH with Y33W
VL: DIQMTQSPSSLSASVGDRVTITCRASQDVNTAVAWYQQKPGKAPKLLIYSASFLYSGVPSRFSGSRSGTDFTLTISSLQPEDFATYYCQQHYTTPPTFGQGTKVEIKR
notes: Fab format; also called GFNIKDTW / IDPANGYT / ARVGGRGYYYYDY
- Kd [6]: 394 nM

B12: AI Design 8 (multi-step AI designed trastuzumab variant, native HCDR1) (Fab, V domains shown)
VH: B6 VH with D52Y, A54S, V99Y, R102S, G103Y, Y104A, Y107F, D108Y
VL: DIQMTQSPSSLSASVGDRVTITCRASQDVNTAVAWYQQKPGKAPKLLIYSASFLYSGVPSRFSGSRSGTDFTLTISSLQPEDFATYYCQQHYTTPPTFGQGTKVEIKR
notes: Fab format; also called GFNIKDTY / IYPSNGYT / ARYGGSYAYYFYY
- Kd [6]: 18.6 nM

B13: AI Design 5 (multi-step AI designed trastuzumab HCDR1/2/3 variant) (Fab, V domains shown)
VH: B6 VH with I29F, D52Y, R98S, V99D, R102S, G103Y, Y104S, Y106A, Y107F
VL: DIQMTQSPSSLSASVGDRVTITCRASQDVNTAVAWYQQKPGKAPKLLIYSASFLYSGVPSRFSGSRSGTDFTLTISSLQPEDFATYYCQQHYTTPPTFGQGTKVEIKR
notes: Fab format; also called GFNFKDTY / IYPANGYT / ASDGGSYSYAFDY
- Kd [6]: 642 nM

B14: AI Design 3 (multi-step AI designed trastuzumab HCDR1/2/3 variant) (Fab, V domains shown)
VH: B8 VH with S30K, S55R, D99H, G101S, V102E, S104R, S106T
VL: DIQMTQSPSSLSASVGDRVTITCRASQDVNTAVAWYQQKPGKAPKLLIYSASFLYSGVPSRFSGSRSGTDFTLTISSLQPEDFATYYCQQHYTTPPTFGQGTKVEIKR
notes: Fab format; also called GFNIKDYY / IYPSRGYT / ARHGSEGRYTMDV
- Kd [6]: 192 nM

B15: De novo trastuzumab HCDR3 variant ARTGWGYDNISGYEY (SEQ ID NO: 497) (Fab, V domains shown)
VH: EVQLVESGGGLVQPGGSLRLSCAASGFNIKDTYIHWVRQAPGKGLEWVARIYPTNGYTRYADSVKGRFTISADTSKNTAYLQMNSLRAEDTAVYYCARTGWGYDNISGYEYWGQGTLVTVSS
VL: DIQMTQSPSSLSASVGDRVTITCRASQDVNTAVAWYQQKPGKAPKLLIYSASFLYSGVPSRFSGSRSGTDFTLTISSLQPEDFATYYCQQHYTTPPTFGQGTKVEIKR
- Kd [5]: 1460 nM
- log(KD (M)) [5]: -5.84 log M

B16: De novo trastuzumab HCDR3 variant ARYAGVERPGSFAY (SEQ ID NO: 43) (Fab, V domains shown)
VH: EVQLVESGGGLVQPGGSLRLSCAASGFNIKDTYIHWVRQAPGKGLEWVARIYPTNGYTRYADSVKGRFTISADTSKNTAYLQMNSLRAEDTAVYYCARYAGVERPGSFAYWGQGTLVTVSS
VL: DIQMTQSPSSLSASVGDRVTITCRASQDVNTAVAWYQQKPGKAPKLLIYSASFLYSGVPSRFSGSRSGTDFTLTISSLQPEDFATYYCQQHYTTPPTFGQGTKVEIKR
- Kd [5]: 574 nM
- log(KD (M)) [5]: -6.24 log M

B17: De novo trastuzumab HCDR3 variant ARYAGVERPGSFAY (Fab, V domains shown)
VH: B16 VH
VL: not shown
notes: Fab format
- log10(KD) [2]: -6.24 log10(M)
